Reference: patent US20080107658A1 (AstraZeneca / MedImmune, published 2008)
Substitutions are numbered along the chain they refer to.

B1: 1021E5 scFv (scFv, part only; not given: Linker and tags, V domains shown, not shown: another chain or arm of the molecule; small tags and cut ends)
VH: EVQLVQSGAEVKKPGSSVKVSCKASGGTFSTYGISWVRQAPGQGLEWIGGIIPIFDTGNSAQSFQGRVTITADESTSTAYMEVSSLRSDDTAVYYCASSSRIYDYAGGDHYYYDMDVWGQGTMVTVSS
VL: QAVLTQPSSVSTPPGQKVTISCSGSSSNIGNNYVSWYQQLPGTAPKLLIYDNNKRPSGIPDRFSGSKSGTSATLGITGLQTGDEADYYCGTWDSSLSAWVFGGGTKLTVL
B2: 1146D7 human IgG4 (antibody, V domains shown)
VH: B1 VH with Y105L, A106N, G107P, G108S, D109L, H110T, Y111A
VL: B1 VL with K17E, S27T
B3: 1145D1 human IgG4 (antibody, V domains shown)
VH: B1 VH with G58S, Y105F, A106R, G107T, G108L, D109Y, H110S, Y111T
VL: B1 VL with P60S, T77A
B4: 1132A9 human IgG4 (antibody, V domains shown)
VH: B1 VH with D56G, Y105F, A106E, G107P, G108S, D109L, H110I
VL: B1 VL
B5: 1147D2 human IgG4 (antibody, V domains shown)
VH: B1 VH with K19R, V20I, I34V, Y105L, A106N, G107P, G108S, D109L, H110T, Y111A
VL: B1 VL with I59V
B6: 1132H9 human IgG4 (antibody, V domains shown)
VH: B1 VH with Y105L, A106N, G107P, G108S, D109L, H110T, Y111A
VL: B1 VL with N28D, S57T
B7: 1134D9 human IgG4 (antibody, V domains shown)
VH: B1 VH with T69A, Y105L, A106N, G107P, G108S, D109L, H110T, Y111A
VL: B1 VL with S95G
B8: 1131H2 human IgG4 (antibody, V domains shown)
VH: B1 VH with S17T, Y105L, A106N, G107P, G108S, D109L, H110T, Y111A
VL: B1 VL with S25T
B9: 1150F1 human IgG4 (antibody, V domains shown)
VH: B1 VH with G66D, S84G, Y105L, A106N, G107P, G108S, D109L, H110T, Y111A, Q120H
VL: B1 VL
B10: 1147D2 scFv (scFv, V domains shown)
VH: B1 VH with K19R, V20I, I34V, Y105L, A106N, G107P, G108S, D109L, H110T, Y111A
VL: B1 VL with I59V
notes: also called LOT1147D02
B11: 1132H9 scFv (scFv, V domains shown)
VH: B1 VH with Y105L, A106N, G107P, G108S, D109L, H110T, Y111A
VL: B1 VL with N28D, S57T
notes: also called LOT1132H09
B12: 1133C11 scFv (scFv, V domains shown)
VH: B1 VH with Y105L, A106N, G107P, G108S, D109L, H110T, Y111A
VL: B1 VL
notes: also called LOT1133C11
B13: 1218H5 scFv (scFv, V domains shown)
VH: B1 VH with E10V, N59S, Y105L, A106N, G107P, G108S, D109L, H110T, Y111A
VL: B1 VL with I29T, P41S
notes: also called LOT1218H05
B14: 1146D7 scFv (scFv, V domains shown)
VH: B1 VH with Y105L, A106N, G107P, G108S, D109L, H110T, Y111A
VL: B1 VL with K17E, S27T
notes: also called LOT1146D07
B15: 1147G9 scFv (scFv, V domains shown)
VH: B1 VH with T31A, D56N, Y105L, A106N, G107P, G108S, D109L, H110T, Y111A
VL: B1 VL with I20V
notes: also called LOT1147G09
B16: 1134D9 scFv (scFv, V domains shown)
VH: B1 VH with T69A, Y105L, A106N, G107P, G108S, D109L, H110T, Y111A
VL: B1 VL with S95G
notes: also called LOT1134D09
B17: 1165D4 scFv (scFv, V domains shown)
VH: B1 VH with Y105L, A106N, G107P, G108S, D109L, H110T, Y111A
VL: B1 VL with G30E
notes: also called LOT1165D04
B18: 1160E3 scFv (scFv, V domains shown)
VH: B1 VH with V18A, Y105L, A106N, G107P, G108S, D109L, H110T, Y111A
VL: B1 VL with S26N
notes: also called LOT1160E03
B19: 1150F1 scFv (scFv, V domains shown)
VH: B1 VH with G66D, S84G, Y105L, A106N, G107P, G108S, D109L, H110T, Y111A, Q120H
VL: B1 VL
notes: also called LOT1150F01
B20: 1131H2 scFv (scFv, V domains shown)
VH: B1 VH with S17T, Y105L, A106N, G107P, G108S, D109L, H110T, Y111A
VL: B1 VL with S25T
notes: also called LOT1131H02
B21: 1033G9 human IgG4 (antibody, V domains shown)
VH: EVQLVQSGAEVRKPGSSVKVSCKASGDTSTLYSINWVRQVPGQGLEWMGAIIPIFGLTDYAQEFQGRLTITADESTNTAYMELTGLRSEDTAIYYCARNLFTTLSYWYFDLWGQGTLVTVSS
VL: SSELTQDPAVSVALGQTVRITCQGDRLRSYYASWYQQKPGQAPVLVIYGKNNRPSGIPDRFSGSSSGNTASLTITGAQAEDEADYYCNSRDSSGNHVVFGGGTLLTVL
B22: 1028F8 human IgG4 (antibody, V domains shown)
VH: EVQLLESGGGLVQPGGSLRLSCAASGFTFSSYAMSWVRQAPGKGLEWVSAIIGSGGSTYYADSVKGRFTISRDNSKNTLYLQMNSLRAEDTAVYYCARAGGSGWFENWFDPWGRGTLVTVSS
VL: QSVLTQPPSVSVSPGQTATITCSGDNLEDKYVSWYQQKAGQSPVLVIFQDSKRPSEIPERFSGSNSGNTATLTISGTLSGDEADYYCQVWDAGIDPWAFGGGTKLTVL
B23: 1057F11 human IgG4 (antibody, V domains shown)
VH: EVQLVETGGGVVQPGTSLRLSCAASGFTFSSHGMHWVRQAPGQGLEWVAHAWSDGSNKYYADSLKGRFTISRDNSRNTLYLQMNSLRAEDTAVYYCARDGQQLANYAMDVWGRGTTVTVSS
VL: DIQMTQSPSFLSASVGDRVTITCRASQGINSYLAWYQQIPGKAPNLLIYAASTLQSGVPSRFSGSGSGTEFTLTISSLQPEDFATYYCQQLNTYPFTFGPGTKVEIK
B24: 1016A8 human IgG4 (antibody, V domains shown)
VH: EVQLVQSGAELKKPGASVKVSCKASGYPFTSYYMHWVRQAPGQGLEWMGLVDPEDGETIYAEKFQGRVTITADTSTDTAYMELSSLRSEDTAVYSCATSSHNYGTASYYHYGMDVWGRGTMVTVSS
VL: QSVLTQPPSASGTPGQRVTISCSGSSSNIGSNTVNWYQRLPGAAPQLLIYNNDQRPSGIPDRFSGSKSGTSGSLVISGLQSEDEADYYCASWDDSLNGRVFGGGTKLTVL
B25: 1033B2 human IgG4 (antibody, V domains shown)
VH: QVQLQQSGAEVKKPGSSVKLSCKASGGTFSSFGISWVRQAPGQGLEWLGRIIPFLGPADYAQKFQGRVTITADESRSTAYMELSSLTSEDTAVYFCARSFYDILTGYYEGVFYYYMDVWGQGTMVTVSS
VL: QSVLIQPASVSGSPGQSITISCTGTSSDVGGYNYVSWYQQHPGKAPKLMIYEGSKRPSGVSNRFSGSKSGNTASLTISGLQAEDEADYYCSSYTTRSTRVFGGGTKLTVL

Columns and labels:
[1] = target: T1, rat nerve growth factor (beta-NGF) (rat, UniProt P25427 122-241); experiment: inhibition of rat 125I-NGF binding to coated p75 fusion protein
T1 sequence (P25427 122-241): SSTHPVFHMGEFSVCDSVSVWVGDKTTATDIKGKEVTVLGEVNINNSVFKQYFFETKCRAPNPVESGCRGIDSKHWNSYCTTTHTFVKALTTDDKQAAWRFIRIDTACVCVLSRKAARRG
Protocol: (§1) Human TrkA and p75 receptor fusion proteins (R&D Systems) were diluted in Dulbecco's PBS (Gibco) to final concentrations of 10 nM and 0.6 nM, respectively. Maxisorp Nunc white 96 well microtitre plates (Nalge Nunc) were coated overnight at 4° C. with 100 μl/well of the diluted TrkA or p75 receptor solution. Plates were washed 3 times with PBS Tween 20, and then blocked with 200 μl/well 3% w/v bovine serum albumin (BSA) in PBS. Plates were washed after 1 h incubation at room temperature. Test antibodies were diluted to the desired concentration in assay buffer (0.5% w/v BSA and 0.05% v/v Tween 20 in PBS). […] Duplicate wells were prepared for each concentration of test sample. […] Bound radiolabel was quantified by addition of 100 μl/well Microscint 20 (Perkin Elmer) followed by counting using a Packard TopCount microplate liquid scintillation counter. Data were plotted and analysed using Graphpad Prism software to calculate IC₅₀ values for each experiment, and to derive the corresponding Ki according to the Cheng-Prusoff equation; Ki=IC₅₀/(1+D/Kd) Where: [0257]

[2] = target: T2, human nerve growth factor (beta-NGF) (human, UniProt P01138 122-241); experiment: inhibition of human 125I-NGF binding to coated TrkA fusion protein
T2 sequence (P01138 122-241): as the sequence (P25427 122-241) above, with T3S, V6I, M9R, T37M, A60D, E65D, T92M, D94G, A117V, G120A counted along it
Protocol: as §1

[3] = target: T1, rat nerve growth factor (beta-NGF); experiment: inhibition of rat 125I-NGF binding to coated TrkA fusion protein
Protocol: as §1

[4] = target: T2, human nerve growth factor (beta-NGF); experiment: inhibition of human 125I-NGF binding to coated p75 fusion protein
Protocol: as §1

[5] = target: T2, human nerve growth factor (beta-NGF); experiment: purified scFv, inhibition of human NGF binding to TrkA fusion protein
[6] = target: T1, rat nerve growth factor (beta-NGF); experiment: purified scFv, inhibition of rat NGF binding to TrkA fusion protein
[7] = target: T1, rat nerve growth factor (beta-NGF); experiment: cell-based or functional assay
[8] = target: mouse nerve growth factor (mouse, UniProt P01139 122-241); experiment: cell-based or functional assay
Sequence of mouse nerve growth factor (P01139 122-241): as the sequence (P25427 122-241) above, with G40A, K50R, P61S, D94E, A117T counted along it

[9] = target: T2, human nerve growth factor (beta-NGF); experiment: cell-based or functional assay
[10] = target: T1, rat nerve growth factor (beta-NGF); experiment: cell-based or functional assay; remark: listed apart in the source
[11] = target: T2, human nerve growth factor (beta-NGF); experiment: cell-based or functional assay; remark: listed apart in the source

| Molecule | IC50 [5] [nM] | IC50 [6] [nM] | IC50, FLIPR calcium mobilisation [7] [nM] | IC50, FLIPR calcium mobilisation [8] [nM] | IC50, FLIPR calcium mobilisation [9] [nM] | IC50, PC12 cell survival [9] [nM] | also measured |
| --- | --- | --- | --- | --- | --- | --- | --- |
| mouse anti-mouse NGF MAB5260Z (Chemicon) (antibody) | – | – | – | – | – | – | IC50 [1]: 0.587 nM; Ki [1]: 0.532 nM; IC50 [2]: 0.368 nM; Ki [2]: 0.333 nM; IC50 [3]: 0.31 nM; Ki [3]: 0.288 nM; IC50 [4]: 0.57 nM; Ki [4]: 0.472 nM |
| B1 | 94 | 269 | – | – | – | – | – |
| B2 | – | – | 0.33 | 0.31 | 0.38 | 0.48 | – |
| B3 | – | – | 0.17 | 0.24 | 0.36 | 0.66 | – |
| B4 | – | – | 0.25 | 0.33 | 0.39 | 0.9 | – |
| B5 | – | – | 0.21 | 0.24 | 0.36 | 0.51 | – |
| B6 | – | – | 0.13 | 0.16 | 0.35 | 0.55 | – |
| B7 | – | – | 0.14 | 0.16 | 0.31 | 0.54 | – |
| B8 | – | – | 0.11 | 0.12 | 0.27 | 0.58 | – |
| B9 | – | – | 0.15 | 0.19 | 0.32 | 0.47 | – |
| B10 | < 0.01 | 0.1 | – | – | – | – | – |
| B11 | 0.54 | 0.68 | – | – | – | – | – |
| B12 | 1.93 | 1.24 | – | – | – | – | – |
| B13 | < 0.01 | 0.03 | – | – | – | – | – |
| B14 | 0.23 | 0.02 | – | – | – | – | – |
| B15 | 0.25 | 0.01 | – | – | – | – | – |
| B16 | 0.14 | 0.2 | – | – | – | – | – |
| B17 | 0.11 | 0.29 | – | – | – | – | – |
| B18 | 0.14 | 0.22 | – | – | – | – | – |
| B19 | 0.2 | 0.16 | – | – | – | – | – |
| B20 | < 0.01 | 0.09 | – | – | – | – | – |
| B21 | – | – | – | – | – | – | IC50, calcium mobilisation assay [10]: 26 nM; IC50, calcium mobilisation assay [11]: 55 nM |
| B22 | – | – | – | – | – | – | IC50, calcium mobilisation assay [11]: 73 nM |
| B23 | – | – | – | – | – | – | IC50, calcium mobilisation assay [11]: ~3700 nM |
| B24 | – | – | – | – | – | – | IC50, calcium mobilisation assay [10]: 14 nM; IC50, calcium mobilisation assay [11]: 65 nM |
| B25 | – | – | – | – | – | – | IC50, calcium mobilisation assay [11]: 85 nM |
